Laboratory results reported in publication PMC3813916.

Biological target: HLA-DR1 on transfected murine fibroblasts (DAP.3-DR1) (human)
Test: radioligand binding

Work on “staphylococcal enterotoxin B (from UniProt P01552 28-266) (natural protein)” yielded a Kd of 141 nM.
